Data reported in PMC4184034.

Test system: dCas9 (SpyCas9 D10A/H840A) (Streptococcus pyogenes)
Experiment: DNA binding assay
Conditions: not given in the material (Methods are in the supplement, not held)

crRNA:tracrRNA + 55-bp target dsDNA gave a Kd of 4 nM.
